Publication PMC4529466, “Intradermal insulin infusion achieves faster insulin action than subcutaneous infusion for 3-day wear” (Drug Delivery and Translational Research, 2015)

Experiment: Safety: adverse events, hypoglycemia, Draize erythema and edema scoring of infusion site
Assay type: in vivo, human (T1DM patients)
Procedure: Safety evaluations comprised of recording/classification of adverse events (including hypoglycemia, BG < 60 mg/dL with or without symptoms), physical examinations, clinical laboratory parameters, vital signs, subjective pain assessments, and assessments of local tissue response at the injection site. Visual observations of the area around the infusion site for skin irritation, insulin leakage, and any notable abnormalities were recorded after each bolus delivery. Upon device removal, the study physician checked the site of insulin administration, as well as 1 and 2 h later, and scored any local reactions according to the Draize erythema and edema scale.
Pharmacokinetic parameters were derived from baseline corrected blood insulin data. The pharmacokinetic and pharmacodynamic populations included all patients with data from either route across 3 days of infusion and patients exposed to at least one trial product with available data respective of PK/PD endpoints. PK and PD endpoints were analyzed using a linear mixed effects model (ANOVA) with sequence, application route, meal, and day as factors along with interactions. The safety population included all patients who had participated in any trial-related activity after randomization. VAS pain data comparisons were made between application routes at each assessment time point using a similar model. Safety evaluations were summarized by descriptive statistics.

Which results are given for insulin aspart?
hypoglycemic episodes (BG below 60 mg/dL) (ID infusion): 67 episodes; subjects with hypoglycemic episodes (ID infusion): 22 subjects; instances with Draize erythema score 2 (ID route, within 2 h after set removal on day 3): 4/24; hypoglycemic episodes (BG below 60 mg/dL) (SC infusion): 56 episodes; subjects with hypoglycemic episodes (SC infusion): 18 subjects; detected hypoglycemic episodes, total (across the study, both routes, majority asymptomatic): 123 episodes; Draize erythema and edema upon removal of infusion set (both routes, immediately after removal on day 3): essentially no detectable erythema or edema; adverse events (AEs), total (entire study, both routes, mild to moderate severity, none serious): 31
